Data on one protein can be found in US20040005688.

Data set [1] deals with T1, GST-DM5 (GST fusion of the 36 amino acid DM5 segment of Dsh, amino acids 214-249).
T1 chain: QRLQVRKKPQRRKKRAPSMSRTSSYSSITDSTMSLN

Data set [2] has as its target T2, Dishevelled (Dsh) protein, endogenous, from Drosophila embryos and Clone-8 cells.
T2 chain: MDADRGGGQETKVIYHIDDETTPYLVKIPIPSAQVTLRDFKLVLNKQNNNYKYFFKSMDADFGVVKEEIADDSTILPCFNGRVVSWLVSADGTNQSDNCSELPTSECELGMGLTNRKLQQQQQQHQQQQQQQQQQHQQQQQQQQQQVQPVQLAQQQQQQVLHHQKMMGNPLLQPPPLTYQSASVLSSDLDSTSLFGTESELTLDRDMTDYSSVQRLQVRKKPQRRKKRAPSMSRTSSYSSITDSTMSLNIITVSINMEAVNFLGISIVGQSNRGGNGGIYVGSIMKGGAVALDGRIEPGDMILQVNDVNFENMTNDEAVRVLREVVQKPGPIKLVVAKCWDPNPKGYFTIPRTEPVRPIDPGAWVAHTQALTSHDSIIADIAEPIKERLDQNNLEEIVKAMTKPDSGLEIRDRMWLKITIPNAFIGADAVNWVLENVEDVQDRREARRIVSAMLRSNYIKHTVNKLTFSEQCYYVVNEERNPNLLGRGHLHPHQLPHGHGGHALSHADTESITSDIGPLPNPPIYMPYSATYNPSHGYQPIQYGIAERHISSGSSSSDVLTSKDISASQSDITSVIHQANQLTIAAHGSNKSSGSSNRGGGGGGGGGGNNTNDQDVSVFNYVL

B1: Dishevelled Associated Kinase (DAK), endogenous kinase activity from Drosophila embryo and Clone-8 cell lysates (protein)
chain: MSTAMRTTLQSVPEALPADSVSNGTASNVAAPAAPVSSATNAVPPLAAVSSTTATYATNSISTSSHSVKDQQQQQQQQQHDSANANIVSLPPTTTPVANTNTMMPIVTSSNSATSNSTAATPTPASGAAATGGVGSVSQGPATVSASAANTNHSHQHSHQHHHHVANNMTTDGARLSSNNSAVVASSAINHHHHHTPGSGVAPTVNKNVLSTHSAHPSAIKQRTSSAKGSPNMQMRSSAPMRWRATEEHIGKYKLIKTIGKGNFAKVKLAKHLPTGKEVAIKIIDKTQLNPGSLQKLFREVRIMKMLDHPNIVKLFQVIETEKTLYLIMEYASGGEVFDYLVLHGRMKEKEARVKFRQIVSAVQYCHQKRIIHRDLKAENLLLDSELNIKIADFGFSNEFTPGSKLDTFCGSPPYAAPELFQGKKYDGPEVDVWSLGVILYTLVSGSLPFDGSTLRELRERVLRGKYRIPFYMSTDCENLLRKFLVLNPAKRASLETIMGDKWMNMGFEEDELKPYIEPKADLADPKRIEALVAMGYNRSEIEASLSQVRYDDVFATYLLLGRKSTDPESDGSRSGSSLSLRNISGNDAGANAGSASVQSPTHRGVHRSISASSTKPSRRASSGAETLRVGPTNAAATVAAATGAVGAVNPSNNYNAAGSAADRASVGSNFKRQNTIDSATIKENTARLAAQNQRPASATQKMLTTADTTLNSPAKPRTATKYDPTNGNRTVSGTSGIIPRRSTTLYEKTSSTEKTNVIPAETKMASAVKSSRHFPRNVPSRSTFHSGQTRARNNTALEYSGTSGASGDSSHPGRMSFFSKLSSRFSKRPNQ
On to B1, for which the in-gel kinase assay result in data set [1] was “A polypeptide of 110 kDa appeared to account for the major DAK activity and two polypeptides of approximately 125 and 64 kDa appeared to represent minor activity”. For the same protein, the “in vitro kinase assay of Dsh immunoprecipitates” value in data set [2] was “Immunoprecipitated Dsh was phosphorylated in this assay”.
